# In the RNAGym collection of RNA variant scans (doi:10.7554/elife.90254):
# B1: LINE1-full (parent)
# chain: UACGUAGGUGGUUUUCCCCUGAUAGUGCUAAGGGGGCCUGGAAGUUUGGACUGGGCAGAGCUCAACACAGCGUGGCAAAGUGGCUGUGGCUAGACUGCCUCUCUGGAUUCCUCGUCACUCAGCAGGGCAUCUCUGAGAGAAAUGCC
# Variants of: B1
# Assay: self-cleavage, relative activity (ratio to wild type); higher = more cleavage; in vitro, sequencing; the parent is a self-cleaving ribozyme
row,Variant,self-cleavage
1,UACGUAGGUGGUUUUCCCCUGAUAGUGCUAAGGGGGCCUGGAUGUUUGGACUGGGCAGAGCUCAACACAGCGUGGCAAAGUGGCUUUGGCUAGACUGCCUCUCUGGAUUCCUCGUCACUCAGCAGGGCAUCUCUGAGAGAAAUGCC [A43U G86U],0.08
2,UACGUAGGUGGUUUUCCCCUGAUAGUGCUAAGGGGGCCUGGAUGUUUGGACUGGGCAGAGCUCAACACAGCGUGGCAAAGUGGCUGUGGCUAGACUGCCUCUCUGGAUUCCUCGUCACCCAGCAGGGCAUCUCUGAGAGAAAUGCC [A43U U119C],1.17
3,UACGUAGGUGGUUUUCCCCUGAUAGUGCUAAGGGGGCCUGGAUGUUUGGACUGGGCAGAGCUCAACACAGCGUGGCAAAGUGGCUGUGGCUAGACUGCCUCUCUGGAUUCCUCGUCACUCAGCAGGGCAUCUCUGAGAGAAACGCC [A43U U143C],0.51
4,UACGUAGGUGGUUUUCCCCUGAUAGUGCUAAGGGGGCCUGGAUGUUCGGACUGGGCAGAGCUCAACACAGCGUGGCAAAGUGGCUGUGGCUAGACUGCCUCUCUGGAUUCCUCGUCACUCAGCAGGGCAUCUCUGAGAGAAAUGCC [A43U U47C],2.03
5,UACGUAGGUGGUUUUCCCCUGAUAGUGCUAAGGGGGCCUGGAUGUUAGGACUGGGCAGAGCUCAACACAGCGUGGCAAAGUGGCUGUGGCUAGACUGCCUCUCUGGAUUCCUCGUCACUCAGCAGGGCAUCUCUGAGAGAAAUGCC [A43U U47A],1.44
6,UACGUAGGUGGUUUUCCCCUGAUAGUGCUAAGGGGGCCUGGAUGUUUGGACUGGGCAGAGCUCAACACAGCGUGGCAAAGUGGCUGUGGCUAGACUGCCUCUCUGGAUUCCUCGUCACUCAACAGGGCAUCUCUGAGAGAAAUGCC [A43U G122A],1.02
7,UACGUAGGUGGUUUUCCCCUGAUAGUGCUAAGGGGGCCUGGAUGUUUGGACUGGGCAAAGCUCAACACAGCGUGGCAAAGUGGCUGUGGCUAGACUGCCUCUCUGGAUUCCUCGUCACUCAGCAGGGCAUCUCUGAGAGAAAUGCC [A43U G58A],0.05
8,UACGUAGGUGGUUUUCCCCUGAUAGUGCUAAGGGGGCCUGGAUGUUUGGACUGGGCAGAGCUCAACACAGCGUGGCAAAGUGGCUGUGGCUAGACUGCUUCUCUGGAUUCCUCGUCACUCAGCAGGGCAUCUCUGAGAGAAAUGCC [A43U C99U],0.2
9,UACGUAGGUGGUUUUCCCCUGAUAGUGCUAAGGGGGCCUGGAAAUUUGGGCUGGGCAGAGCUCAACACAGCGUGGCAAAGUGGCUGUGGCUAGACUGCCUCUCUGGAUUCCUCGUCACUCAGCAGGGCAUCUCUGAGAGAAAUGCC [G44A A50G],0.9
10,UACGUAGGUGGUUUUCCCCUGAUAGUGCUAAGGGGGCCUGGAUGUUUGGACUGGGCAGAACUCAACACAGCGUGGCAAAGUGGCUGUGGCUAGACUGCCUCUCUGGAUUCCUCGUCACUCAGCAGGGCAUCUCUGAGAGAAAUGCC [A43U G60A],0.05
11,UACGUAGGUGGUUUUCCCCUGAUAGUGCUAAGGGGGCCUGGAUGUUUGGACUGGGCAGAGCUCAACACAGCGUGGCAAAGUAGCUGUGGCUAGACUGCCUCUCUGGAUUCCUCGUCACUCAGCAGGGCAUCUCUGAGAGAAAUGCC [A43U G82A],1.4
12,UACGUAGGUGGUUUUCCCCUGAUAGUGCUAAGGGGGCCUGGAUGGUUGGACUGGGCAGAGCUCAACACAGCGUGGCAAAGUGGCUGUGGCUAGACUGCCUCUCUGGAUUCCUCGUCACUCAGCAGGGCAUCUCUGAGAGAAAUGCC [A43U U45G],2.34
13,UACGUAGGUGGUUUUCCCCUGAUAGUGCUAAGGGGGCCUGGAUGUUUGGACUGGGCAGAGUUCAACACAGCGUGGCAAAGUGGCUGUGGCUAGACUGCCUCUCUGGAUUCCUCGUCACUCAGCAGGGCAUCUCUGAGAGAAAUGCC [A43U C61U],0.02
14,UACGUAGGUGGUUUUCCCCUGAUAGUGCUAAGGGGGCCUGGAUGUUUGGACUGGGCAGAGCUCAACACAGCGUGGCAAAGUGGCUGUGGCUAGGCUGCCUCUCUGGAUUCCUCGUCACUCAGCAGGGCAUCUCUGAGAGAAAUGCC [A43U A94G],0.12
15,UACGUAGGUGGUUUUCCCCUGAUAGUGCUAAGGGGGCCUGGAUGUUUGGACUGGGCAGAGCUCAACACAGCGUGGCAAAGUGGCUGUGGCUAGACUGCCUCUCUGGAUUCCUCGUCGCUCAGCAGGGCAUCUCUGAGAGAAAUGCC [A43U A117G],1.25
16,UACGUAGGUGGUUUUCCCCUGAUAGUGCUAAGGGGGCCUGGAUGUGUGGACUGGGCAGAGCUCAACACAGCGUGGCAAAGUGGCUGUGGCUAGACUGCCUCUCUGGAUUCCUCGUCACUCAGCAGGGCAUCUCUGAGAGAAAUGCC [A43U U46G],1.37
17,UACGUAGGUGGUUUUCCCCUGAUAGUGCUAAGGGGGCCUGGAUGUCUGGACUGGGCAGAGCUCAACACAGCGUGGCAAAGUGGCUGUGGCUAGACUGCCUCUCUGGAUUCCUCGUCACUCAGCAGGGCAUCUCUGAGAGAAAUGCC [A43U U46C],1.23
18,UACGUAGGUGGUUUUCCCCUGAUAGUGCUAAGGGGGCCUGGAUGUUUGGACUGGGCAGAGCUCAACACAGCGUGGCAAAGUGGCUGUGGCUAGACAGCCUCUCUGGAUUCCUCGUCACUCAGCAGGGCAUCUCUGAGAGAAAUGCC [A43U U96A],0.12
19,UACGUAGGUGGUUUUCCCCUGAUAGUGCUAAGGGGGCCUGGAUGUUUGGACUGGGCAGAGCUCAACACAGCGUGGCAAGGUGGCUGUGGCUAGACUGCCUCUCUGGAUUCCUCGUCACUCAGCAGGGCAUCUCUGAGAGAAAUGCC [A43U A79G],0.97
20,UACGUAGGUGGUUUUCCCCUGAUAGUGCUAAGGGGGCCUGGAUGUUUGGACUGGGCAGAGCUCAACACAGCGUGGCAAUGUGGCUGUGGCUAGACUGCCUCUCUGGAUUCCUCGUCACUCAGCAGGGCAUCUCUGAGAGAAAUGCC [A43U A79U],2.2

row,Variant,self-cleavage
1,UACGUAGGUGGUUUUCCCCUGAUAGUGCUAAGGGGGCCUGGAUGUUUGGACUGGGCAGAGCUCAACACAGCGUGGCAAAGUGGCCGUGGCUAGACUGCCUCUCUGGAUUCCUCGUCACUCAGCAGGGCAUCUCUGAGAGAAAUGCC [A43U U85C],0.16
2,UACGUAGGUGGUUUUCCCCUGAUAGUGCUAAGGGGGCCUGGAUGUUUGGACUGGGCAGAGCUCAACACAGCGUGGCAAAGUGGCUGUGACUAGACUGCCUCUCUGGAUUCCUCGUCACUCAGCAGGGCAUCUCUGAGAGAAAUGCC [A43U G89A],0.06
3,UACGUAGGUGGUUUUCCCCUGAUAGUGCUAAGGGGGCCUGGAUGUUUGGACUGGGCAGAGCUCAACACAGCGUGGCAAAGUGGCUGUGGCUAGACUGCCUCUCUGGAUUCCUCGUCACUCAGCAGGGCAUCUCAGAGAGAAAUGCC [A43U U134A],1.13
4,UACGUAGGUGGUUUUCCCCUGAUAGUGCUAAGGGGGCCUGGAAAUUUGGACUGGGCAGAGCUCAACACAGCGUGGCAAAGUGGCUGUGGCUAGACUGCCUCUCUGGAUUCCUCGUCACUCAGCAGGGCAUCUCUGAGAGAAAUGCC [G44A],1.21
5,UACGUAGGUGGUUUUCCCCUGAUAGUGCUAAGGGGGCCUGGAAAUUUGGACUGGGCAGAGCUCGACACAGCGUGGCAAAGUGGCUGUGGCUAGACUGCCUCUCUGGAUUCCUCGUCACUCAGCAGGGCAUCUCUGAGAGAAAUGCC [G44A A64G],0.33
6,UACGUAGGUGGUUUUCCCCUGAUAGUGCUAAGGGGGCCUGGAUGUUUGGACUGGGCAGAGCUCAACACAGCGUGGCAAAGUGGCUGUGGCUAGACUGCCACUCUGGAUUCCUCGUCACUCAGCAGGGCAUCUCUGAGAGAAAUGCC [A43U U100A],0.84
7,UACGUAGGUGGUUUUCCCCUGAUAGUGCUAAGGGGGCCUGGAUGUUUGGACUGGGCAGAGCUCAACACAGCGUGGCAAAGUGGCUGUGGCUAGACUGCCCCUCUGGAUUCCUCGUCACUCAGCAGGGCAUCUCUGAGAGAAAUGCC [A43U U100C],1.75
8,UACGUAGGUGGUUUUCCCCUGAUAGUGCUAAGGGGGCCUGGAUGUUUGGACUGGGCAGAGCUCAACACAGCGUGGCAAAGUGGCUGUGGCUAGACUGGCUCUCUGGAUUCCUCGUCACUCAGCAGGGCAUCUCUGAGAGAAAUGCC [A43U C98G],0.06
9,UACGUAGGUGGUUUUCCCCUGAUAGUGCUAAGGGGGCCUGGAUGUUUGGACUGGGCAGAGCUCAACACAGCGUGGCAAAGUGGCUGUGGCUAGACUGCCUCGCUGGAUUCCUCGUCACUCAGCAGGGCAUCUCUGAGAGAAAUGCC [A43U U102G],0.75
10,UACGUAGGUGGUUUUCCCCUGAUAGUGCUAAGGGGGCCUGGAUGUUUGGACUGGGCAGAGCUCAACACAGCGUGGCAAAGUGGCUGUGGCUAGACUGCCUCCCUGGAUUCCUCGUCACUCAGCAGGGCAUCUCUGAGAGAAAUGCC [A43U U102C],0.25
11,UACGUAGGUGGUUUUCCCCUGAUAGUGCUAAGGGGGCCUGGAUAUUUGGACUGGGCAGAGCUCAACACAGCGUGGCAAAGUGGCUGUGGCUAGACUGCCUCUCUGGAUUCCUCGUCACUCAGCAGGGCAUCUCUGAGAGAAAUGCC [A43U G44A],1.61
12,UACGUAGGUGGUUUUCCCCUGAUAGUGCUAAGGGGGCCUGGAUGUUUGGACUGGGCAGAGCUCAACACAGCGUGGCAAAGUGGCUGUGGCUAGACUGCCUCUCUGGAUUCCUCGUCACUCAGCAGGGCAUCUCUGAGAGAGAUGCC [A43U A141G],1.38
13,UACGUAGGUGGUUUUCCCCUGAUAGUGCUAAGGGGGCCUGGAUGUUUGGACUGGGCAGAGCUCAACACAGCGUGGCAAAGUGGCUGUGGCUAGACUGCCUCUCUGGAUUCCUCGACACUCAGCAGGGCAUCUCUGAGAGAAAUGCC [A43U U115A],1.6
14,UACGUAGGUGGUUUUCCCCUGAUAGUGCUAAGGGGGCCUGGAUGUUUGGACUGGGCAGAGCUCAACACAGCGUGGCAAAGUGGCUGUGGCUAGACUGCCUCUCUAGAUUCCUCGUCACUCAGCAGGGCAUCUCUGAGAGAAAUGCC [A43U G105A],1.21
15,UACGUAGGUGGUUUUCCCCUGAUAGUGCUAAGGGGGCCUGGAUGUUUGGACUGGGCAGAGCUCAACACAGCGUGGCAAAGUGGCUGUGGCUAGACUGCCUCUCCGGAUUCCUCGUCACUCAGCAGGGCAUCUCUGAGAGAAAUGCC [A43U U104C],1.67
16,UACGUAGGUGGUUUUCCCCUGAUAGUGCUAAGGGGGCCUGGAUGUUUGGACUGGGCAGAGCUCAACACAGCGUGGCAAAGUGGCUGUGGCUAGACUGCCUCUCUGGAUUCCUCGUCACUCAGCAGGGCAUCCCUGAGAGAAAUGCC [A43U U132C],1.26
17,UACGUAGGUGGUUUUCCCCUGAUAGUGCUAAGGGGGCCUGGAUGUUUGGACAGGGCAGAGCUCAACACAGCGUGGCAAAGUGGCUGUGGCUAGACUGCCUCUCUGGAUUCCUCGUCACUCAGCAGGGCAUCUCUGAGAGAAAUGCC [A43U U52A],1.04
18,UACGUAGGUGGUUUUCCCCUGAUAGUGCUAAGGGGGCCUGGAUGUUUGGACUCGGCAGAGCUCAACACAGCGUGGCAAAGUGGCUGUGGCUAGACUGCCUCUCUGGAUUCCUCGUCACUCAGCAGGGCAUCUCUGAGAGAAAUGCC [A43U G53C],1.03
19,UACGUAGGUGGUUUUCCCCUGAUAGUGCUAAGGGGGCCUGGAUGUUUGGACUGAGCAGAGCUCAACACAGCGUGGCAAAGUGGCUGUGGCUAGACUGCCUCUCUGGAUUCCUCGUCACUCAGCAGGGCAUCUCUGAGAGAAAUGCC [A43U G54A],0.56
